Laboratory results from PMC6168492, “Human and mouse albumin bind their respective neonatal Fc receptors differently” (Scientific Reports, 2018).

Assays:
[1] = biological target: T1, wild-type mouse serum albumin with C-terminal GST (mouse, UniProt P07724 25-608); assay: SPR; receptor binding to immobilised albumin at pH 5.5 in the presence of 0.005% Tween-20 instead of 0.05%; conditions: both partners purified
T1 construct: mouse serum albumin; also called MSA WT; WT MSA; source: HEK293E, transiently transfected, purified from supernatant (GSTrap FF); not shown: GST (Schistosoma japonicum), C-terminal, kept

[2] = biological target: T1, wild-type mouse serum albumin with …; assay: SPR; Biacore T200; albumin variants amine-coupled on CM5 (~200 or 500 RU); monomeric His-tagged hFcRn or mFcRn injected in serial dilutions; phosphate buffer (177 mM phosphate, 85 mM NaCl, 0.05% Tween 20) pH 5.5, 30 µl/min, 25 °C; 1:1 Langmuir model; conditions: both partners purified

T1 sequence (P07724 25-608): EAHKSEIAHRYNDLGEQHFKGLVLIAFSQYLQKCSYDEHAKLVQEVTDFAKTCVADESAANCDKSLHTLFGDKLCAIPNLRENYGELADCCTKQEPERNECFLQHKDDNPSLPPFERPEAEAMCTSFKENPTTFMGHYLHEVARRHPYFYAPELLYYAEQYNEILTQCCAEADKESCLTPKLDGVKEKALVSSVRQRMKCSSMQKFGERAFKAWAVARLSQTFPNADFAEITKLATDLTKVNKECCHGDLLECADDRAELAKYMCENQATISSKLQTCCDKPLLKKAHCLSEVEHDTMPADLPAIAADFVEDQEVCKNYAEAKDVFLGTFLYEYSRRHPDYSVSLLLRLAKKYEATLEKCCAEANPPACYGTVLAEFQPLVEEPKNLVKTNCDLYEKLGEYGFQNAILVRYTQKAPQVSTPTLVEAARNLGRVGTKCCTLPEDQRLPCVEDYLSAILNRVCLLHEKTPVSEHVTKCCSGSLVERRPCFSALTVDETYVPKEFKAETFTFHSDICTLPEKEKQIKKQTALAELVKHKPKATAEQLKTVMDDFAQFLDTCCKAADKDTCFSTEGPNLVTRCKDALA

fold change of KD in 0.005% against 0.05% Tween-20 [1]: 1.7 fold | Kd [2]: 547 nM | koff [2]: 0.0164 s⁻¹ | kon [2]: 30000 M⁻¹ s⁻¹
B1: soluble monomeric His-tagged mouse neonatal Fc receptor (mFcRn) (receptor)
chain: SETRPPLMYHLTAVSNPSTGLPSFWATGWLGPQQYLTYNSLRQEADPCGAWMWENQVSWYWEKETTDLKSKEQLFLEALKTLEKILNGTYTLQGLLGCELASDNSSVPTAVFALNGEEFMKFNPRIGNWTGEWPETEIVANLWMKQPDAARKESEFLLNSCPERLLGHLERGRRNLEWKEPPSMRLKARPGNSGSSVLTCAAFSFYPPELKFRFLRNGLASGSGNCSTGPNGDGSFHAWSLLEVKRGDEHHYQCQVEHEGLAQPLTVDLDSSARSS
b2m: IQKTPQIQVYSRHPPENGKPNILNCYVTQFHPPHIEIQMLKNGKKIPKVEMSDMSFSKDWSFYILAHTEFTPTETDTYACRVKHASMAEPKTVYWDRDM
notes: neonatal Fc receptor heavy chain, mouse, soluble form; beta2-microglobulin, non-covalently associated with the heavy chain; Surmised: the His tag sits on the truncated heavy chain; also called mouse FcRn; the mouse receptor
